{"source": "the supplement of paper PMC9112550", "about": "“Optimization of the antimicrobial peptide Bac7 by deep mutational scanning” (BMC Biology, 2022);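 also: peptides expressed intracellularly from a pBAD plasmid library in pooled LB shake-flask culture, induced with 0.3% L-arabinose, DNA abundance read by NGS, three biological replicates, DESeq2 with apeglm shrinkage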"}
{"system": "Escherichia coli TOP10", "experiment": "shrunken log2 fold change of peptide-encoding DNA abundance (4.5 h post-induction vs induction); higher = less antimicrobial activity (less host growth inhibition)", "settings": "time post-induction: 4.5 h; library: site-saturation at positions 5, 18, 19, 20"}
{"sequence": "RRIRARPPRLPRPRPRPCCHPRP", "shrunken log2 fold change": -0.454}
{"sequence": "RRIRTRPPRLPRPRPRPYCKPRP", "shrunken log2 fold change": -0.129}
{"sequence": "RRIRGRPPRLPRPRPRPNKSPRP", "shrunken log2 fold change": 0.96}
{"sequence": "RRIRERPPRLPRPRPRPYNCPRP", "shrunken log2 fold change": 0.275}
{"sequence": "RRIRERPPRLPRPRPRPFTKPRP", "shrunken log2 fold change": -0.0421}
{"sequence": "RRIRFRPPRLPRPRPRPLMAPRP", "shrunken log2 fold change": -0.581}
{"sequence": "RRIRDRPPRLPRPRPRPARDPRP", "shrunken log2 fold change": 0.724}
{"sequence": "RRIRWRPPRLPRPRPRPDKQPRP", "shrunken log2 fold change": 0.0432}
{"sequence": "RRIRDRPPRLPRPRPRPQQGPRP", "shrunken log2 fold change": -0.00207}
{"sequence": "RRIRHRPPRLPRPRPRPEHGPRP", "shrunken log2 fold change": -0.00141}
{"sequence": "RRIRARPPRLPRPRPRPGFDPRP", "shrunken log2 fold change": 0.719}
{"sequence": "RRIRWRPPRLPRPRPRPVEIPRP", "shrunken log2 fold change": -0.206}
{"sequence": "RRIRMRPPRLPRPRPRPTNQPRP", "shrunken log2 fold change": 0.279}
{"sequence": "RRIRFRPPRLPRPRPRPQLDPRP", "shrunken log2 fold change": 0.123}
{"sequence": "RRIRVRPPRLPRPRPRPVTSPRP", "shrunken log2 fold change": -0.558}
{"sequence": "RRIRARPPRLPRPRPRPPSEPRP", "shrunken log2 fold change": 1.17}
{"sequence": "RRIRMRPPRLPRPRPRPECSPRP", "shrunken log2 fold change": 0.333}
{"sequence": "RRIRSRPPRLPRPRPRPYYCPRP", "shrunken log2 fold change": 2.2}
{"sequence": "RRIRNRPPRLPRPRPRPQNVPRP", "shrunken log2 fold change": -0.0764}
{"sequence": "RRIRGRPPRLPRPRPRPTPSPRP", "shrunken log2 fold change": 0.954}
{"sequence": "RRIRMRPPRLPRPRPRPIKCPRP", "shrunken log2 fold change": -0.0724}
{"sequence": "RRIRWRPPRLPRPRPRPLQAPRP", "shrunken log2 fold change": 0.721}
{"sequence": "RRIRFRPPRLPRPRPRPENAPRP", "shrunken log2 fold change": 0.402}
{"sequence": "RRIRSRPPRLPRPRPRPDPNPRP", "shrunken log2 fold change": -0.000549}
{"sequence": "RRIRPRPPRLPRPRPRPKPPPRP", "shrunken log2 fold change": 0.538}
{"sequence": "RRIRGRPPRLPRPRPRPILIPRP", "shrunken log2 fold change": 0.191}
{"sequence": "RRIRHRPPRLPRPRPRPHLWPRP", "shrunken log2 fold change": -0.0776}
{"sequence": "RRIRHRPPRLPRPRPRPIPWPRP", "shrunken log2 fold change": 0.0217}
{"sequence": "RRIRHRPPRLPRPRPRPQFSPRP", "shrunken log2 fold change": -0.139}
{"sequence": "RRIRNRPPRLPRPRPRPVHCPRP", "shrunken log2 fold change": -0.123}
{"sequence": "RRIRDRPPRLPRPRPRPYIGPRP", "shrunken log2 fold change": -0.0691}
{"sequence": "RRIRGRPPRLPRPRPRPIHVPRP", "shrunken log2 fold change": -0.315}
{"sequence": "RRIRWRPPRLPRPRPRPSQPPRP", "shrunken log2 fold change": -0.0613}
{"sequence": "RRIRMRPPRLPRPRPRPLQTPRP", "shrunken log2 fold change": 3.06}
{"sequence": "RRIRNRPPRLPRPRPRPTGYPRP", "shrunken log2 fold change": -0.0249}
{"sequence": "RRIRTRPPRLPRPRPRPIDRPRP", "shrunken log2 fold change": -0.148}
{"sequence": "RRIRNRPPRLPRPRPRPARIPRP", "shrunken log2 fold change": -0.0767}
{"sequence": "RRIRFRPPRLPRPRPRPDWNPRP", "shrunken log2 fold change": -0.287}
{"sequence": "RRIRVRPPRLPRPRPRPDDVPRP", "shrunken log2 fold change": -0.297}
{"sequence": "RRIRIRPPRLPRPRPRPMGMPRP", "shrunken log2 fold change": -0.253}
{"sequence": "RRIRCRPPRLPRPRPRPECHPRP", "shrunken log2 fold change": 0.0568}
{"sequence": "RRIRNRPPRLPRPRPRPIALPRP", "shrunken log2 fold change": -0.0133}
{"sequence": "RRIRPRPPRLPRPRPRPRGWPRP", "shrunken log2 fold change": 1.12}
{"sequence": "RRIRLRPPRLPRPRPRPRWTPRP", "shrunken log2 fold change": 0.404}
{"sequence": "RRIRCRPPRLPRPRPRPSAKPRP", "shrunken log2 fold change": 0.189}
{"sequence": "RRIRCRPPRLPRPRPRPVSDPRP", "shrunken log2 fold change": 0.0185}
{"sequence": "RRIRCRPPRLPRPRPRPHYIPRP", "shrunken log2 fold change": -0.0818}
{"sequence": "RRIRDRPPRLPRPRPRPFRQPRP", "shrunken log2 fold change": -0.137}
{"sequence": "RRIRLRPPRLPRPRPRPPHEPRP", "shrunken log2 fold change": 0.269}
{"sequence": "RRIRMRPPRLPRPRPRPPIQPRP", "shrunken log2 fold change": 0.693}
{"sequence": "RRIRGRPPRLPRPRPRPAMKPRP", "shrunken log2 fold change": 0.311}
{"sequence": "RRIRGRPPRLPRPRPRPVFPPRP", "shrunken log2 fold change": 0.36}
{"sequence": "RRIRWRPPRLPRPRPRPNVLPRP", "shrunken log2 fold change": -0.0626}
{"sequence": "RRIRPRPPRLPRPRPRPQSEPRP", "shrunken log2 fold change": -0.381}
{"sequence": "RRIRARPPRLPRPRPRPDIIPRP", "shrunken log2 fold change": 0.363}
{"sequence": "RRIRQRPPRLPRPRPRPQKKPRP", "shrunken log2 fold change": -0.214}
{"sequence": "RRIRNRPPRLPRPRPRPVPDPRP", "shrunken log2 fold change": -0.0278}
{"sequence": "RRIRDRPPRLPRPRPRPNEQPRP", "shrunken log2 fold change": -0.0164}
{"sequence": "RRIRTRPPRLPRPRPRPHMEPRP", "shrunken log2 fold change": 0.0103}
{"sequence": "RRIRTRPPRLPRPRPRPWIIPRP", "shrunken log2 fold change": -0.228}
{"sequence": "RRIRVRPPRLPRPRPRPGTVPRP", "shrunken log2 fold change": 0.421}
{"sequence": "RRIRYRPPRLPRPRPRPWKNPRP", "shrunken log2 fold change": -0.458}
{"sequence": "RRIRPRPPRLPRPRPRPNQAPRP", "shrunken log2 fold change": -0.0302}
{"sequence": "RRIRLRPPRLPRPRPRPNFIPRP", "shrunken log2 fold change": -0.228}
{"sequence": "RRIRIRPPRLPRPRPRPHTIPRP", "shrunken log2 fold change": -0.572}
{"sequence": "RRIRRRPPRLPRPRPRPQYEPRP", "shrunken log2 fold change": -0.00402}
{"sequence": "RRIRMRPPRLPRPRPRPNCQPRP", "shrunken log2 fold change": 0.356}
{"sequence": "RRIRCRPPRLPRPRPRPADCPRP", "shrunken log2 fold change": -0.0557}
{"sequence": "RRIRIRPPRLPRPRPRPADGPRP", "shrunken log2 fold change": 0.276}
{"sequence": "RRIRVRPPRLPRPRPRPLYAPRP", "shrunken log2 fold change": -0.154}
{"sequence": "RRIRHRPPRLPRPRPRPLPKPRP", "shrunken log2 fold change": 0.389}
{"sequence": "RRIRKRPPRLPRPRPRPEIAPRP", "shrunken log2 fold change": 2.48}
{"sequence": "RRIRDRPPRLPRPRPRPDNAPRP", "shrunken log2 fold change": -0.0954}
{"sequence": "RRIRVRPPRLPRPRPRPTYGPRP", "shrunken log2 fold change": -0.838}
{"sequence": "RRIRTRPPRLPRPRPRPSIYPRP", "shrunken log2 fold change": -0.513}
{"sequence": "RRIRPRPPRLPRPRPRPANGPRP", "shrunken log2 fold change": 0.0748}
{"sequence": "RRIRSRPPRLPRPRPRPMLNPRP", "shrunken log2 fold change": -0.198}
{"sequence": "RRIRGRPPRLPRPRPRPIIGPRP", "shrunken log2 fold change": -0.0822}
{"sequence": "RRIRVRPPRLPRPRPRPLNEPRP", "shrunken log2 fold change": -0.0647}
{"sequence": "RRIRARPPRLPRPRPRPDTIPRP", "shrunken log2 fold change": 0.103}
{"sequence": "RRIRKRPPRLPRPRPRPNRQPRP", "shrunken log2 fold change": 1.09}
{"sequence": "RRIRKRPPRLPRPRPRPKKPPRP", "shrunken log2 fold change": 0.0909}
{"sequence": "RRIRERPPRLPRPRPRPCKWPRP", "shrunken log2 fold change": 0.0276}
{"sequence": "RRIRHRPPRLPRPRPRPCAEPRP", "shrunken log2 fold change": -0.228}
{"sequence": "RRIRTRPPRLPRPRPRPYKNPRP", "shrunken log2 fold change": -0.937}
{"sequence": "RRIRTRPPRLPRPRPRPFQTPRP", "shrunken log2 fold change": 0.0582}
{"sequence": "RRIRLRPPRLPRPRPRPPWKPRP", "shrunken log2 fold change": 0.153}
{"sequence": "RRIRARPPRLPRPRPRPNNIPRP", "shrunken log2 fold change": -0.537}
{"sequence": "RRIRWRPPRLPRPRPRPPKSPRP", "shrunken log2 fold change": 0.789}
{"sequence": "RRIRWRPPRLPRPRPRPPNLPRP", "shrunken log2 fold change": -0.24}
{"sequence": "RRIRTRPPRLPRPRPRPLNGPRP", "shrunken log2 fold change": -0.235}
{"sequence": "RRIRYRPPRLPRPRPRPQPTPRP", "shrunken log2 fold change": 0.0156}
{"sequence": "RRIRKRPPRLPRPRPRPRNCPRP", "shrunken log2 fold change": 0.0613}
{"sequence": "RRIRARPPRLPRPRPRPNCAPRP", "shrunken log2 fold change": 0.567}
{"sequence": "RRIRWRPPRLPRPRPRPPREPRP", "shrunken log2 fold change": 0.808}
{"sequence": "RRIRYRPPRLPRPRPRPPYRPRP", "shrunken log2 fold change": -0.714}
{"sequence": "RRIRLRPPRLPRPRPRPEWLPRP", "shrunken log2 fold change": 0.315}
{"sequence": "RRIRRRPPRLPRPRPRPSMIPRP", "shrunken log2 fold change": -0.114}
{"sequence": "RRIRDRPPRLPRPRPRPKMSPRP", "shrunken log2 fold change": -0.0119}
{"sequence": "RRIRRRPPRLPRPRPRPSYIPRP", "shrunken log2 fold change": -0.416}
{"sequence": "RRIRCRPPRLPRPRPRPTRYPRP", "shrunken log2 fold change": -0.0935}
{"sequence": "RRIRMRPPRLPRPRPRPRHFPRP", "shrunken log2 fold change": 0.00681}
{"sequence": "RRIRGRPPRLPRPRPRPFRHPRP", "shrunken log2 fold change": 0.0102}
{"sequence": "RRIRHRPPRLPRPRPRPLLGPRP", "shrunken log2 fold change": -0.107}
{"sequence": "RRIRFRPPRLPRPRPRPFWQPRP", "shrunken log2 fold change": -0.321}
{"sequence": "RRIRPRPPRLPRPRPRPHSLPRP", "shrunken log2 fold change": -0.0621}
{"sequence": "RRIRTRPPRLPRPRPRPVKTPRP", "shrunken log2 fold change": 0.12}
{"sequence": "RRIRQRPPRLPRPRPRPCLIPRP", "shrunken log2 fold change": -0.0017}
{"sequence": "RRIRDRPPRLPRPRPRPLFAPRP", "shrunken log2 fold change": 0.65}
{"sequence": "RRIRCRPPRLPRPRPRPLMQPRP", "shrunken log2 fold change": 0.0849}
{"sequence": "RRIRTRPPRLPRPRPRPDSLPRP", "shrunken log2 fold change": -0.153}
{"sequence": "RRIRARPPRLPRPRPRPDGNPRP", "shrunken log2 fold change": -0.0344}
{"sequence": "RRIRKRPPRLPRPRPRPHDYPRP", "shrunken log2 fold change": 0.0206}
{"sequence": "RRIRDRPPRLPRPRPRPDICPRP", "shrunken log2 fold change": -0.0418}
{"sequence": "RRIRQRPPRLPRPRPRPQGYPRP", "shrunken log2 fold change": -0.19}
{"sequence": "RRIRIRPPRLPRPRPRPNWMPRP", "shrunken log2 fold change": -0.341}
{"sequence": "RRIRWRPPRLPRPRPRPTWNPRP", "shrunken log2 fold change": 0.306}
{"sequence": "RRIRLRPPRLPRPRPRPNTMPRP", "shrunken log2 fold change": -0.501}
{"sequence": "RRIRVRPPRLPRPRPRPYYCPRP", "shrunken log2 fold change": -0.513}
{"sequence": "RRIRGRPPRLPRPRPRPPMCPRP", "shrunken log2 fold change": 0.525}
{"sequence": "RRIRPRPPRLPRPRPRPAPGPRP", "shrunken log2 fold change": 0.645}
{"sequence": "RRIRPRPPRLPRPRPRPADMPRP", "shrunken log2 fold change": 0.0113}
{"sequence": "RRIRNRPPRLPRPRPRPRGWPRP", "shrunken log2 fold change": 0.962}
{"sequence": "RRIRLRPPRLPRPRPRPPQVPRP", "shrunken log2 fold change": 0.162}
{"sequence": "RRIRNRPPRLPRPRPRPFPQPRP", "shrunken log2 fold change": -0.186}
